Measurements as given in patent publication US20070248536A1 (SCIL PROTEINS, published 2007).
Residue numbers refer to the chain shown, from its start. Blank lines part the entries; values can stand above or below the binder they belong to.

Experiments:
human IgG Fc = target: T1, human IgG Fc (human); experiment: SPR (BIACORE), IgG Fc immobilised on a CM5 chip, Affilin as analyte
T1 construct: domain: Fc; The ELISAs used human monoclonal IgG Fc (Roche); Kept as one molecule; also called human monoclonal IgG Fc portion (Roche); polyclonal IgG Fc
Protocol: In BIACORE experiments the dissociation constants of the three Affilin™ variations were determined. For this purpose, approx. 180 RU of human IgG Fc (50 μg/ml in 50 mM Na citrate, pH 5.0) was immobilized on a CM5 chip. Free binding sites were finally inactivated by 1 M ethanolamin (pH 8.5).
Then, at a flow of 30 μl/min, 6 different concentrations (166 nM-1 μM) were passed over the chip for 180 sec. Afterwards, at the same flow the chip was rinsed with HBS, 0.005% Surfactant P20 (Biacore) for 180 sec. From the resulting sensorgrams using the BiaEvaluation Software (Biacore, Uppsala, Sweden) the following dissociation constants of the Affilin™ variations to IgG Fc could be determined: SPC1-A1 with 230 nM, SPC1-A7 with 280 nM and SPC1-G3 with 800 nM. In competition experiments the specific binding of the Affilin™ variations to IgG Fc and not to the chip matrix could be detected (FIG. 2).

BSA = target: T2, BSA (bovine, UniProt P02769 25-607); experiment: concentration-dependent ELISA, detection with anti-gamma-II-crystallin antibody-POD
T2 construct: Control antigen
T2 sequence (P02769 25-607 limits assumed): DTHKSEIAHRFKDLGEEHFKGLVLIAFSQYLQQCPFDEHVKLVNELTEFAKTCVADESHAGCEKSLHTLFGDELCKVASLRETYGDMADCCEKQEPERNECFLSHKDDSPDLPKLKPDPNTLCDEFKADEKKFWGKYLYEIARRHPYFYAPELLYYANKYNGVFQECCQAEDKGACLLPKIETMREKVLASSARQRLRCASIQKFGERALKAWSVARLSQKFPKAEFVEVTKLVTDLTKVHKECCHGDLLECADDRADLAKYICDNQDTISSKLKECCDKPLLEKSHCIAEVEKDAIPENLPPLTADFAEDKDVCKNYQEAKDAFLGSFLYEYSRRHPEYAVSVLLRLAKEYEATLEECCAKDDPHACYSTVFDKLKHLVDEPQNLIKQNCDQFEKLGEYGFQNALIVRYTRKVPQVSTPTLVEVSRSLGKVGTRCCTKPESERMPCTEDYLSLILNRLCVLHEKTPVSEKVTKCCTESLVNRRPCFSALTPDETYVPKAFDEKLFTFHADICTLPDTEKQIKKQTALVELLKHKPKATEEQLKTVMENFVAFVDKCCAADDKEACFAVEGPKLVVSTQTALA
Protocol: The binding properties of the purified proteins were now tested as described above in a concentration-dependent ELISA. For this purpose, different concentrations (100 nM-10 μM) of the Affilin™ variations were employed and an anti-gamma-II-crystallin antibody (monoclonal antibody conjugate with POD) was employed as the detection antibody.

proNGF [1] = experiment: concentration-dependent ELISA, proNGF coated, apparent KD
proNGF, sequence (P01138 19-241): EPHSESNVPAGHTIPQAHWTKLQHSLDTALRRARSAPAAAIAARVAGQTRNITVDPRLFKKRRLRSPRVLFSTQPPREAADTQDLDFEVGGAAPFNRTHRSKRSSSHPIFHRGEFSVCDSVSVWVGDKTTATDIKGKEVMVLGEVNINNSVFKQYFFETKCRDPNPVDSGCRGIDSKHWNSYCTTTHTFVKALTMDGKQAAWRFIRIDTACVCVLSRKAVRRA
Protocol: FIG. 3: Concentration-dependent ELISA for the detection of the binding of SPC7-E9 to proNGF. The microtiter plate was coated with 10 μg/mi of proNGF. As the detection antibody served an anti-human gamma-II-crystallin antibody-POD conjugate in a dilution of 1:1000. The absorption values presented are mean values of two parallel measurements.

proNGF [2] = experiment: SPR (BIACORE), SPC7-E9 coupled through amino groups to a CM5 chip, proNGF as analyte
Protocol: FIG. 9: Sensorgrams of the Biacore experiments for the binding of SPC7-E9 to a CM5 chip with proNGF. 280 RU of […] were immobilized and different concentrations of proNGF passed over the chip. As the running buffer served HBS-EP with a flow rate of 30 μl/min.
2.) Furthermore, SPC7-E9 could be coupled unspecifically via surface-exposed amino groups (lysines) by means of NHS/EDC to the carboxyl groups of the BIACORE dextrane matrix in the following manner: The CM5 chip was activated for 7 min with NHS/EDC, and afterwards purified SPC7-E9 (in 20 mM Na phosphate buffer, pH 6.0) was passed over the chip for further 7 min. After the coupling was carried out the remaining reactive groups were deactivated for 7 min with 1 M ethanolamine (pH 8.5). For the analysis of dissociation constants the target proNGF was passed over the chip in different concentrations, the binding was monitored online (FIG. 9), and the curves were subsequently evaluated with the BiaEvaluation Software. […] After kinetic measurements the chip was regenerated with 0.1 glycin (pH 2.2), 10 mM HCl, 10 mM NaOh, 6 M Gua/HCl, 6 M urea and 20% ethanol. In this way, the binding activity of the Affilin™ chip was unchanged even after several regeneration cycles

B1: Affilin variation SPC1-A1 (designed binder)
chain: MGFIWFMEDRAFQGRRYDCGTDCPNLQPYFSRCNSIKVKSGCWMIYERPNYQGHRHQYFLRRGEYPDYQQWMGLSDSIRSCCLIPPHSGAYRMKIYDRDELRGQMSELTDDCLSVQDRFHLTEIHSLNVLEGSWILYEMPNYRGRQYLLRPGEYRRFLDWGAPNAKVGSLRRVMDLYA
notes: Selected from the human gamma-II-crystallin library CR20
Kd (human IgG Fc): 230 nM | binding result (BSA): no binding (tested: 100 nM-10 µM)

B2: Affilin variation SPC1-G3 (designed binder)
chain: B1 chain with F3S, W5I, M7L, R16I, D18G, G20T, K37V, K39Q
notes: Selected from library CR20
Kd (human IgG Fc): 800 nM | binding result (BSA): no binding (tested: 100 nM-10 µM)

B3: Affilin variation SPC1-A7 (designed binder)
chain: B1 chain with F3L, W5C, M7S, D18M, G20L, K37N, K39W
notes: Selected from library CR20; has a free cysteine in variable position 4; not shown: C-terminal tag of six histidines 'already present'
Kd (human IgG Fc): 280 nM | binding result (BSA): no binding (tested: 100 nM-10 µM)

The next lines start with the values.

Kd (proNGF [1]): 200 nM | Kd (proNGF [2]): 1.4 nM
B4: Affilin variation SPC7-E9 (designed binder)
chain: MGFICFLEDRAFQGRSYACDTDCPNLQPYFSRCNSISVLSGCWMIYERPNYQGHQYFLRRGEYPDYQQWMGLSDSIRSCCLIPPHSGAYRMKIYDRDELRGQMSELTDDCLSVQDRFHLTEIHSLNVLEGSWILYEMPNYRGRQYLLRPGEYRRFLDWGAPNAKVGSLRRVMDLYLEHHHHHH
notes: Directed against proNGF; also called SPCJ-E9 (including His6)

binding result (BSA): no binding
B5: human wildtype gamma-II-crystallin (other, UniProt P07316 1-175, looked up)
chain: MGKITFYEDRAFQGRSYECTTDCPNLQPYFSRCNSIRVESGCWMIYERPNYQGHQYFLRRGEYPDYQQWMGLSDSIRSCCLIPPHSGAYRMKIYDRDELRGQMSELTDDCISVQDRFHLTEIHSLNVLEGSWILYEMPNYRGRQYLLRPGEYRRFLDWGAPNAKVGSLRRVMDLY
notes: also called human wildtype gamma-crystallin
